19 sequences from the DeepSol protein solubility set can be followed below.

The series is described as follows: soluble on expression in E. coli; label from the status in PepcDB or PDB records.
Consider “MSLGVNFQPVAFTGRIDQSQREKKRITIPDVMKLVEEQTGGEIPCNAWYPVSFVVPISRFLSAMRNIPIPELTAHPHCGAGTYVFYEEGHFIPITNFFDVESFIELLKEITPEINGRVSRVLSLAKVIKQVPKFIDEKKGPKSVNTTRMILDLLKKGDMENTSRFHRNTLFLGTMHFQDLYNIDLERVKKCGVHYATPDGRIIPFCTYNEGHHHHHH”, for which the “soluble on expression in E. coli” value is given as “not soluble”.

Consider “MPSLQDLYAAFRRIAPYTHRTPLLTSRLLDGLLGKRLLLKAEHLQKTGSFKARGALSKALALENPKGLLAVSSGNHAQGVAYAAQVLGVKALVVMPEDASPYKKACARAYGAEVVDRGVTAKNREEVARALQEETGYALIHPFDDPLVIAGQGTAGLELLAQAGRMGVFPGAVLAPVGGGGLLAGLATAVKALSPTTLVLGVEPEAADDAKRSLEAGRILRLEAPPRTRADGVRTLSLGERTFPILRERVDGILTVSEEALLEAERLLFTRTKQVVEPTGALPLAAVLEHGARLPQTLALLLSGGNRDFSP”, for which the “soluble on expression in E. coli” value is “soluble”.

On to “MTQRLHRDRHDRGVRGPLFSSALPRYCSRRQRFDATVLEAYAPLQQRYAAQLTHLDIAVDTVPRMRLGFDPALVPDEVVADGPVPLGRVIPAGVDSSGHPTRARLVLFRMAIEQRVVSAQERRELVTTVLTALVANYLNISPTDIDPNFQW”, for which the “soluble on expression in E. coli” value is “not soluble”.

Regarding “MTKVSIIVPVYNTKNYVPRLLTSIEKQTYTNWELILVDDHSNDGTYELLLEFKDRYPNKVEVLKTPKPRSGPMIGKNMGIEVSSGKFLAFVDSDDWWSETFLKDTVSNIKSFGGVSTEYYDVFEDSDKKVHVKASKHGVVSWEDVLKLKARFGNGNSLLRRKIVENYGIRFPEHLWYSEDIYFYTQYLSVIDRIYVVPSPDFYHLVRGASMVRSDKIKQESKIEQTIRVYEEVCTRIQEISKVSDEVCKLLKSYQMPYSIMTYITSVSDSLGRAEARKLFWKYLDYLKGYRLTRSHQSYLTLLWILDLFIPIRGILRRLIGLEHHHHHH”, the “soluble on expression in E. coli” value is “soluble”.

Regarding “MGSDKIHHHHHHMEVAEGEFKPAFPIKPAQQLVFVHIPKCGGTSMHQFLANAKKVQPEPELSTILAGYCEPALHKHSKAAVIRDLVGPALWQTIFTFSVVRNPWDLMLSSYRWWLQKAGRFSSLRAQADEVADLGSFEGFLKSDFGGNRINECEGDILSWLSDENGQEIVDFVGRLEDIEQALQNVFERAGLAGYSEFPRLNSTVRGGYQDYYNAETKRLIQTRFQATIDRFEYQF”, the “soluble on expression in E. coli” value is “not soluble”.

On to “GSMNDRDFMRYSRQILLDDIALDGQQKLLDSQVLIIGLGGLGTPAALYLAGAGVGTLVLADDDDVHLSNLQRQILFTTEDIDRPKSQVSQQRLTQLNPDIQLTALQQRLTGEALKDAVARADVVLDCTDNMATRQEINAACVALNTPLITASAVGFGGQLMVLTPPWEQGCYRCLWPDNQEPERNCRTAGVVGPVVGVMGTLQALEAIKLLSGIETPAGELRLFDGKSSQWRSLALRRASGCPVCGGSNADPV”, for which the “soluble on expression in E. coli” value is listed as “soluble”.

Take “MGSDKIHHHHHHMRILILGAGKMGSFFTDILSFQHETAVFDVNPHQLRFVYNTYRFTTLEEIKEFEPELVINAATVKYTLDAFRKILPVLPKDCILSDIASVKTGLKKFYEESGFRYVSTHPMFGPTFASLSNLSSESAIIISESDHLGKVFFKDLYNSLNLNIFEYTFDEHDETVAYSLSIPFVSTFVFAAVMKHQEAPGTTFKKHMAIAKGLLSEDDYLLQEILFNPRTPSQVENIRTELKQLLEIITNKDAEGMKKYLTKIREKIK”: the “soluble on expression in E. coli” value is on record as “not soluble”.

With “MATGLGFFKLSFLLSLLSGGSDLLGPDAESGVAQIGKFPPSCNRIECPSYELVHSGNGYEIRRYNNTVWVSTEPIPDISLVDATRTAFFQLFAYIQGKNEYHQKIEMTAPVISQVSPSDGPFCESSFTVSFYVPKKNQPDPAPSENLHIQKWNSRYVAVRQFSGFVSDDSIGEQAAALDSSLKGTAWANAIAKSKEDGGVGSDSAYTVAQYNSPFEFSGRVNEIWLPFELDV”, the “soluble on expression in E. coli” value was “not soluble”.

As to “MSLGNDRWRAEFPLERIGTYEFRVEAWRDVFATLHADLEKKRAANTVLPVDVQEAVAAVQAAQARSDGALAERLQTVLTRIGAQSEPLQQLAIVLEPDTAQAMALADDKPFRSEYPVTFRVESERRAAHFSSWYELFPRSQSGDASRHGTFDDVIKRLPHIRAMNFDVLYMPPIHPIGLNNRKGRNNSVTAVEGEPGSPYAIGATDGGHTEVHAELGGLEGFRRLIEAARAQGLEVALDFAIQCAPDHPWLKEHKDWFTWRADGSIPYAENPPKKYQDIVNVDFYASGAVPDLWNTLRDAVLFWVNEGVTLFRVDNPHTKPFPFWEWLIADVRGRRPDVVFLSEAFTRPKMMYRLAKCGFSQSYTYFTWRNHKHELQAYVEELNDGVPRECFRPHFFVNTPDINPLFLQTSGRNGHLIRAALATTLSGLWGMYQGFELCEATPLAPGKEEYLDSEKFQLRAWPERVPGDIVEEITRFNQLRRMHPELQSHLGTRFYQAHNDQVLYYGKFLDAGYLSRSRSMVLVAINLDPHAGQDADIEIPLWELGLPDHASVAVEDLWDGHRFAWHGKYQHIRLEATRPFALWRIRAGEGHHHHHH”, the “soluble on expression in E. coli” value was “not soluble”.

Regarding “GSHMAAELDSLLGQEKERFQVLPGRDKMLYVAAQNERDTLWARQVLARGDYDKNARVINENEENKRISIWLDTYYPQLAYYRIHFDEPRKPVFWLSRQRNTMSKKELEVLSQKLRALMPYADSVNITLMDDVTAAGQAEAGLKQQALPYSRRNHKGGVTFVIQGALDDVEILRARQFVDSYYRTWGGRYVQFAIELKDDWLKGRSFQYGAEGYIKMSPGHWYFPSPL”, the “soluble on expression in E. coli” value is given as “soluble”.

With “MICFCAERFQWRRLWQIPGDLLFPGPADMARALLYRRPTEPSTIPVRHGSQFFAVRIRRHRRARRYTLRIHPSDREAILTMPPRGTLADAKEFAQRHGAWIAARLGRLPKAAPFLPGTLVPLRGHDHKIVHRTGRGTVWTEVRESGEKILCVAGETEHIERRVLDFLKREARKDLQKACDRYAPELGVKVTRLSIRDQSSRWGSCTSAGSLSFSWRLILAPSYVLDYLAAHEVAHLVEMNHSARFWRVVGKVCPQMERAKTWLDSYGNDLHRYGISDLEHHHHHH”, the “soluble on expression in E. coli” value was “soluble”.

“MGSDKIHHHHHHMDSSAAFSNPTKLRADLLRGRLDVSVDSSTIAPDSLFGFAERRNPKRAFLFVSRVLGRHIPARPSVMLKSFQDLAHKIPVDLPGPVLVIGMAETAVGLGAGVHRAYSETHSDALYLVSTRHPTGTELFARFEEEHSHASAHLIHLPADPALRDMMLGARSLVLVDDEASTGKTFINLHQALVEAGLSKIERVVTCVLTDWSAGAVSTSMGAVAEQVSLLQGSYSFDEDVSAPLPDMPEVGTVAMGDWPLLTANDWGRMGVLAVADTLAPGLTVNKGERVLVVGTSEFVWRPFLLAERLEKAGADVHFSSTSRSPIALGHAIDHALSFSDNYGLGIPNFLYNVRPGQFDRVLICTETPRQAVPAELIEALNAEVICDE”: the “soluble on expression in E. coli” value is recorded as “not soluble”.

Regarding “MQPGYNGHGRGIYNFIGMTANRRSNLHNTVALDPDILTDTFQQCLFYQYAQCSILLMKEGATGFPFALYAPSTVSSYLYMR”, the “soluble on expression in E. coli” value is “not soluble”.

Take “MGGYGGVKMEGMLKGEGPGPLPPLLQQYVELRDRYPDYLLLFQVGDFYECFGEDAERLARALGLVLTHKTSKDFTTPMAGIPIRAFDAYAERLLKMGFRLAVADQVEPAEEAEGLVRREVTQLLTPGTLTQEALLPREANYLAAIATGDGWGLAFLDVSTGEFKGTLLKSKSALYDELFRHRPAEVLLAPELRENEAFVAEFRKRFPVMLSEAPFEPQGEGPLALRRAQGALLAYARATQGGALSVRPFRLYDPGAFVRLPEASLKALEVFEPLRGQDTLFGVLDETRTAPGRRLLQAWLRHPLLERGPLEARLDRVERFVREGALREGVRRLLFRLADLERLATRLELSRASPRDLAALRRSLEILPELKGLLGEEVGLPDLSGLLEELRAALVEDPPLKVSEGGLIREGYDPDLDALRRAHAEGVAYFLDLEAREKERTGIPTLKVGYNAVFGYYLEVTRPYYEKVPQEYRPVQTLKDRQRYTLPEMKERERELYRLEALIKRREEEVFLALRERARKEAEALREAARILAELDVYAALAEVAVRHGYTRPRFGERLRIRAGRHPVVERRTAFVPNDLEMAHELVLVTGPNMAGKSTFLRQTALIALLAQIGSFVPAEEAELPLFDGIYTRIGASDDLAGGKSTFMVEMEEVALVLKEATERSLVLLDEVGRGTSSLDGVAIATALAEALHERRCYTLFATHYFELTALALPRLKNLHVAAKEEEGGLVFYHQVLPGPASKSYGVEVAEMAGLPKEVVERARALLSAMAARREGALEEVLERLLALDPDRLTPLEALRFLHELKALALGLPLGSMKG”: the “soluble on expression in E. coli” value is “soluble”.

Regarding “AHHHHHHGSSAKLERIVEEISVAFVGHEDVVRKVLSAALANGNVLFEDNPGLGKTLLAKAFAKVLGLEYRRVQFTPDLLPSDILGTKVWRPEKGTFEIVKGPIFTNVLLADEINRAPPKTQSALLEAMEERQVTIEGETFVLERPFFVIATQNPLEFEGTYPLPEAQLDRFLVRMSIGYPKNESEEVEILKARLRWGKDDPTTDLKPAITKSEFLKMQEDVERNVKIHEDILKYIVRIVRTIREDERVEAGPSPRGGLALMKLAKANAYVEGRDYVIPDDVKEFAIEALAHRIFLKPEYSLEKGIEIEIVREALESVPVPKDLKY”, the “soluble on expression in E. coli” value is “not soluble”.

For “MLEDLRLYQLISPSLPVGSFTYSQGLEWAIEKGWVTNVTELKHWLSNQLMDSLATLELPVLAKLTQLLQQEEWQQAQDWCDFIIANRETKELRLEERQRGLAFSMLLPKLGIELNQTTLPMVKQTQVAAFALAANHWNLTPTKLAAAYAWGWLENAVIVGIKLVPLGQSAGQQLLLEMADVIPQAVEKSQHWPEHLIGSFTPAQVLASSRHESQYTRLFRSLEHHHHHH”, the “soluble on expression in E. coli” value is “soluble”.

On to “MSLIIDCHGHVSAPVELWAYKASLLAHRGSHGRGGVKVTDEQIIAAAHHKETWPDGHIELLHNHGTDMQLISPRTFQMMNSAKPARVVHWFCEEVNTLIHRQCTLIPEMFIPVAGLPQVAGEPIENVFAEMDRCVSMGFKGFLLNPDPYENGAEEAPPLGDRYWYPLYEKLCELDLPAHIHATGSQSERSPYSLHFINEETIATYNLCTSSVFDDFPQLKVVVSHGGGAIPYQLGRFESQSRRSKHLFSERMAKLYFDTVLYTEGALRLLIETVGPERCLFGSECPGVGSTIDPATGKQMDHIAPFIQKFDFLSDADKKLIFEDNARKVFNLEVEGHHHHHH”, for which the “soluble on expression in E. coli” value is listed as “soluble”.

On to “MDRVESLANQIFEDYKDYGVDRKEIVEKLRKLLIEFRVPENEAVRTIRNYIIREYGAPATVRRERITKIEEIKEPNKWVTVKAKVIQLWESSSPSIAQVGLIGDETGYIRFLVWTKAKKQPVDEGKSYIFRNVVVDDYGGVLRLNVTKISEIEEIEEDVKVKPPEELSEDVEVVGALVAIQQNSGLIQRCSVEGCNRVIKMGKCPEHGKTKAKDDLRIKGVLDDGYRTYEVIINEEGVESLTGINLEKAKKIAEETLDRGAVLTELKKMLLGKYLRVVGTATPRYLIAKHVEFFRPDIRKEIEKVKALLEEV”, for which the “soluble on expression in E. coli” value is “not soluble”.

“MLHKRFRRYSMLKRYGQIIEVLQKYGFGYIVDQIGLGSFGDFTSRLKKQEKRDEHNLSGPVRTRRILEELGPTYIKLGQLLSMRRDLVPLEYAAEFSKLQDDAPSFGFEEVELIIREELGLPVEDLFESFEKKPLACASIGQVHRAKLKNGDDVVVKVQRPGIKEVIESDLDIMYSLSRLLTEHIPEARLYRPVELVDELSRSILAEIDYSQEGWNTDRFAENFKDSEQIHIPKVYWDYTGLEHHHHHH”: the “soluble on expression in E. coli” value was “not soluble”.
